This is an account of results in the nanobody polyreactivity screen of Harvey et al. (2022).

A short description of the series: yeast display, Sf9 membrane polyspecificity reagent, FACS + sequencing; frameworks hold sequencing errors. The method, boiled down: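 Synthetic nanobody libraries on Saccharomyces cerevisiae BJ5465 were galactose-induced for 36–48 hours, stained 1 hour at 4 °C with 10% biotinylated, detergent-solubilized Sf9 membrane reagent and enriched on streptavidin microbeads. FACS then separated cells into low and high (top ~1%) gates by anti-HA (expression) and streptavidin (reagent binding) fluorescence. Genes were colony-PCR amplified, MiSeq 2 × 250 sequenced and CDR-length filtered. A clone's polyreactivity label is that of its gate of origin.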
Turning to “QVQLVESGGGLGQAGGSLRLSCAASGRIFAGYAMGWYRQAPGKERELVAAISWSGSSTHYADSVKGRFTISRDNAKNTVYFQMNSLKPEDTAVYYCAADLKDTRLFPWFFEYDYWGQGTQVTVSS”, the “polyreactivity (PSR sort gate)” value is given as “low polyreactivity”. The value for “QVQLVESGGGLGQAGGSLRLSCAASGRIFRGYAMGWYRQAPGTDRELVATISAIGGSTYADSVKGRFTIARDNAKNTVYLQMNSLKPEDTAVYYCNKVHFRPRYFLRSDYWGQGTQGTVSS” was “high polyreactivity”; that for “QVQLVESGGGLGQAGGSLRLSCAASGRIFRYNAMGWYRQAPGKDRELVAVITSRGGRTYYADSVKGRFTLSRDNAKNTVYLQMTSLKPEDSAVYYCTATYSGRGSTYWSGYDYWGQGTQVTVSS” was “high polyreactivity”.

Turning to “QVQLVESGGGLGQAGGSLRLSCAASGRTLGIYAMGWYRQAPGKERELVAAITWSGGSTYYADSVKGRFTISRDNAKNTVYLQMNSLKPEDTAVYYCNVRSGGKRRNSGRVDYWGQGTQVTVSS”, the “polyreactivity (PSR sort gate)” value is listed as “low polyreactivity”.

Consider “QVQLVESGGGLGQAGGSLRLSCAASGSIFAVNAMGWYRPAPGKERELVAGINSSGGSTHYADSVKGRFTISRDNAKNTVYFQMNSLKPEDTAVYYCAADWLRPAYYAVASLVKSDYWGQGTQVTVSS”, for which the “polyreactivity (PSR sort gate)” value was “low polyreactivity”. The value for “QVQLVESGGGLGQAGGSLRLSCAASGSIFGRYTMGWYRQAPGKERELVAAITLRGGSTYYADSVKGRFTISRDNAKNTVYLQMNSLKPEDTAVYYCATDGWKQSAYDYWGQGTQVTVSS” was “low polyreactivity”. The value for “QVQLVESGGGLGQAGGSLRLSCAASGSIFSAYAMGWYRPAPGKERELVAGISKRGGSTYYADSVKGRFTISRDNAKNTVYLQMNSLKAEDTAVYYCTAARYTVVTKLFDYWGQGTQVTVSS” was “high polyreactivity”; that for “QVQLVESGGGLGQAGGSLRLSCAASGSNFRPYAMGWYRPAPGKERELVAAISSSGGSTYYADSVKGRFTISRDNAKNTVYLQMNSLKPEDTAVYYCAAVSRSTWIHSRDYWGQGTQVTVSS” was “low polyreactivity”. The value for “QVQLVESGGGLGQAGGSLRLSCAASGSTFKFYAMGWYRHAPGKERELVATISWTGGSTYYADSVKGRFTISRDNAKNTVYLQTNSLKPEDTAVYYCANRKTSYPVIWYTVNGRHYYWGQGTQVTVSS” was “low polyreactivity”. Turning to “QVQLVESGGGLGQAGGSLRLSCAASGSTFYLNAMGWYRQATGKERELVAAINSGDSTNYADSVKGRFTISRDNAKNTVYLQMNSLKPEDTAVYYCARDRFPSEGDYWGQGTQVTVSS”, the “polyreactivity (PSR sort gate)” value was “low polyreactivity”. The value for “QVQLVESGGGLGQAGGSLRLSCAASGSTFYRNAMGWYRPAPGKERELVAAISGSDGSTYYADSVKGRFTISRDNAKNTVYLQMNSLKPEDTAVYYCVVAYARKYYYWGQGTQVTVSS” was “high polyreactivity”; that for “QVQLVESGGGLGQAGGSLRLSCAASGSTLNYYAMGWYTQAPGKERELVAAITWSGGSTSYADSVKGRFTISRDNAKNTVYLQMNSLKPEDTAVYYCATDFPTVQLYDTDWLSSDMGYWGQGTQVTVSS” was “low polyreactivity”; that for “QVQLVESGGGLGQAGGSLRLSCAASGYTFGKYAMGWYRPAPGKERELVAAISWSGGSTYYADSVKGRFTISRDNAKNTVYLQMNSLKPEDTAVYYCNIGYIGRYGYWGQGTQVTVSS” was “high polyreactivity”.

Consider “QVQLVESGGGLGQAGGSLRLSCADSGRTFYKYAMGWYRQSPGKERDLVAAISGSGGSTFYADSVKGRFTISRDNAKNTVYLQMNSLKPEDTAVYYCAKYLRPRIGYRYYYWVQGTQVTVSS”, for which the “polyreactivity (PSR sort gate)” value was “high polyreactivity”. The entry for “QVQLVESGGGLGQAGGSLRLSSAASGFTFRRNAMGWYRQAPGKERELVAAINVRDGSTYYADSVKGRFTISRDNAKNTVYLQMNSLKPEDTAVYYCAAEFFQGYYWYYYWGQGTQVTVSS” is “high polyreactivity”; for “QVQLVESGGGLGQAGGSLRLSTAASGSNFRYNTMGWYRLGPGKERELVAAINISSSSTYYADSLKGRFTISRDNAKNTVYLQMNSLKPEVTAVYYCANRDYVPIATYENDDYWGQGTQVNVSS” it is “low polyreactivity”; for “QVQLVESGGGLGQAGGSLRVSCAASGGTLYYYAMGWYRQARGKERELVADITNSGSTNYADAVKGRFTISRDNAKNTVYLQMNSLKPEDTAVYSCAAAFSRRYDWGQGTQVTVSS” it is “high polyreactivity”. The value for “QVQLVESGGGLGQAVGRLRLSCAASGGTFPQYAMGWYRQAPGKEREFVADITSRGGTTYYADSVQGRFTISRDNAKNTVYLQMNSLKPEDTAVYYCAADNPADWWGLDYWGQGTQVTVSS” was “low polyreactivity”; that for “QVQLVESGGGLLHAGGSLRLSCAASGLIFSDYVMGWYRQAPWKERELVAGITTGGSTKYADSVKWRFTISRDNAKTTVYLQMNSLKPEDTAVYYCAVGKYNYRGSWDYYWGQGTQVTLSS” was “high polyreactivity”; that for “QVQLVESGGGLLQAGGILRLSCAASGFTFKYYVMGWYRQAPGKERELDAAITSSGSTYYADSVKGRFTISRDNAKNTVYLQINRLKPEDSAVYYCAAEGQSWQRWRYNYWGQGTQVTVSS” was “high polyreactivity”. The entry for “QVQLVESGGGLLQAGGSLPLSCPASGRIFYSYAMGWYRQAPGKERELVAGINWRGSNTYYADSVKGRFTISRDNAKNTVYFQMNSLKPEDTAVYYCSATYYQERRRGYWGQGSQVTVSS” is “high polyreactivity”; for “QVQLVESGGGLLQAGGSLRFSWAASGFIFIINPMGWYRQAPGKERELVAGIRWSGGYKYYADSVKGRFTISRDNEKNTVYLQINSLKPEDTAVYYCNKDRGSLTLYTYDYWGQVTQVTVSS” it is “low polyreactivity”. For “QVQLVESGGGLLQAGGSLRISCAASGITFVYYVMGWYRQAPRKERELVAGISSGGSTYYADSVKGRFTISRDNAKNTVYLQMISLKPEDTAVYYCNAVDTYGLWRRYNYWGQGTQVTVSS”, the “polyreactivity (PSR sort gate)” value is recorded as “high polyreactivity”. The value for “QVQLVESGGGLLQAGGSLRLICAASGRIFQTYAMGWYRQAPGKERELVARIRLSGGSTYSADSVKGRFTISRDNAKNTGYLQKNSQKPEDTAVYSCAARFSRARFTDPYYYWGQGTQVTVSS” was “high polyreactivity”. The entry for “QVQLVESGGGLLQAGGSLRLICAASGSIFGANTMGWYRPAPGKERELVAGITSGARTYYADSVKGRFTMSRDNAKNTVYLQMNSLQPEDTAVYYCAANYAWRRYGYWGNGTQVTVSS” is “high polyreactivity”.

With “QVQLVESGGGLLQAGGSLRLSCAASGFIFGRNAMGWYRQAPGKERELVAAITRSGGSTYYADSVKGRFTISRDNAKNTVYLQMISLKTEDTAVYYCAKGDFYWGVFRVGIRDDYWGQGTQVNVSS”, the “polyreactivity (PSR sort gate)” value is “high polyreactivity”. With “QVQLVESGGGLLQAGGSLRLSCAASGFTIQRYAMGWYRQAPGKERELVAAITSGGSTYYADSVKGRFTISRDNAKNTVYLQMNSLKPEDTAVYYCATRAVWSSWGRRYDSWGQGTQVTVSS”, the “polyreactivity (PSR sort gate)” value is “high polyreactivity”. The entry for “QVQLVESGGGLLQAGGSLRLSCAASGIIFGRYTMGWYRKAPGKETELVAAITSSGITYYADSVKGRFTISRDNAKNTVYLQMNSLKPEDTAVYYCYADYSIPGYYWPYDYWGQGTQVTVSS” is “low polyreactivity”.

As to “QVQLVESGGGLLQAGGSLRLSCAASGRIFIANAMGWNRQAPRKERDLVAAITSDGGTNYADSVKGRFTISRDNAKITVYLQLISLKPEDTAVYYCAATYQIGYYYVWEYDYWGQGTQLTVSS”, the “polyreactivity (PSR sort gate)” value is listed as “low polyreactivity”.

Take “QVQLVESGGGLLQAGGSLRLSCAASGRIFPYYAMGWYRQAPGKERVLLAAISQSGGRTYYADSVKGRFTISRDNAKNTVFLQMNSLKPEDTAVYYCNADTYSSGYDYWGQGTQVTVSS”: the “polyreactivity (PSR sort gate)” value was “high polyreactivity”. The value for “QVQLVESGGGLLQAGGSLRLSCAASGRIYSIYAMGWYRQAPGKERELVASITGSGGTTYYADSVKGRFTISRDIAKNTVYLQMNSLKPEDTAVYYCAAVFYGFVGYYNEDYWGQGSQVTVSS” was “low polyreactivity”; that for “QVQLVESGGGLLQAGGSLRLSCAASGRTFLGYAMGWYIQAPGKERELVAAISWDGTSTYYADSLKGRFTISRDNAKNTVYLPMNSLKPEDTAVYYCAAQLTDYQSKTLSYDYWGQGTQVTVSS” was “low polyreactivity”; that for “QVQLVESGGGLLQAGGSLRLSCAASGRTFRAYTMGWYRQAPGKERELVAAISTPGGSTYYADSVKGRFTISRDNAKNTVYLQMNSLKPEDSAVYYCAAGTFYYWLSYDYWGQGTQVTVSS” was “low polyreactivity”. The value for “QVQLVESGGGLLQAGGSLRLSCAASGRTFYHYTMGWYRQAPGKERELVARITRRVGSTYYADSVKGRFTISRDNAKNIVYLQMNSLKPEDTAVYYCNSKSGVYRYLLDYWGQGTQVTVSS” was “high polyreactivity”; that for “QVQLVESGGGLLQAGGSLRLSCAASGRTIVQNAMGWYRQAPGKERELVASIRYRDGSTYYADSVKGRFTISRDNAKNTVYLQMNSLKTEDTAVYYCAVRYYRKYYYSPFDYWGQGTQVTVSS” was “high polyreactivity”; that for “QVQLVESGGGLLQAGGSLRLSCAASGSIFGDNAMVWYRQAPWKERDLVATISSSDASTYYADSVKGRFTISRDNAKNTVNLQMNSLKPEDTAVYYCAKEVTAGYHVWYDYWGQGTQVTVSS” was “low polyreactivity”.

As to “QVQLVESGGGLLQAGGSLRLSCAASGSIFGQYAMGWYIQAPGKERELVAAISTRGGSTRYADSVKGRFTISRDNAKNTVYLQMNSLKPEDTAVYYCAARVPYIRHLAVDYWGQGTQVTVSS”, the “polyreactivity (PSR sort gate)” value is “high polyreactivity”. The entry for “QVQLVESGGGLLQAGGSLRLSCAASGSIFGSYVMGWYRQAPGKERELVAAITASGGSTYYADSVKGRFTISRDTAKNTVYLQMNSLKPEDTAVYYCATKRTWPVGEMYYWGQGTQVTVSS” is “high polyreactivity”. The entry for “QVQLVESGGGLLQAGGSLRLSCAASGSIFRRNAMGWYRQAPGKERELVAAIRRGGSTNYADSVKGRFTISRDNAKNTVYLQMNSLKPEDTAVYYCAARGGSSGFYYWGQGTQVTVSS” is “high polyreactivity”; for “QVQLVESGGGLLQAGGSLRLSCAASGSIFTYYAMGWYRQAPGKEREFVAAINYGGGSTYYADSVKGRFTISRDNAKNTVYLQMNSQKPEDTAVYYCNARTFGPNGKHRYGYWGQGTQVSVSS” it is “high polyreactivity”.
